In general, Kd refers to the constant that tells how readily two partners part at equilibrium. Read a low Kd as a tighter complex. Usually stoichiometry N stands for the number of molecules, sites or subunits per partner or assembly.

This assay has as its target 6xHis-FoxR^peri-T192A (purified whole periplasmic region of FoxR with T192A) (P. aeruginosa). The experiment in a line: AUC; sedimentation velocity titration: FoxR^peri fixed at 10 μm, FoxA^SD at 1, 2, 5, 10, 20, 40 and 80 μm; sw isotherm (absorbance and interference) globally fitted in SEDPHAT to an A+B <-> AB model; 8°C, 20 mM Tris pH 8.3, 500 mM NaCl, 1 mM DTT, 3% glycerol.

“6xHis-FoxA^SD (purified signaling domain of FoxA) (from UniProt Q9I116 53-820) (domain or fragment)” came in with a Kd of 4.3 µM and a stoichiometry N of 1.

The values above are taken from publication PMC11637429.
